Values quoted from earlier work in article PMC6540754.

Molecular target: BfrB (Pseudomonas aeruginosa) (UniProt Q9HY79)
Sequence of UniProt Q9HY79 (Q9HY79 whole entry): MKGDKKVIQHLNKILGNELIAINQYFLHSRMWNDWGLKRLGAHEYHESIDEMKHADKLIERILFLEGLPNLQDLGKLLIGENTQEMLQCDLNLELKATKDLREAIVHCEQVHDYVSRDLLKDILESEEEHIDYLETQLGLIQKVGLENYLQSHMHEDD

Bfd (from UniProt Q9HY80)
Kd: 3.4 µM
